Data taken from US10030233B2, “Modified P450 reductase with N-terminal deletions and endoplasmic reticulum retention tag” (DE MONTFORT UNIVERSITY, priority 2013, dated 2018).

T1: CYP1A2 (Homo sapiens, UniProt P05177)
T1 construct: A 1563 bp BamHI-XhoI fragment containing the human CYP1A2 gene; made in house; host or cells: Saccharomyces cerevisiae W303B, microsomes
T1 sequence (P05177 1-516): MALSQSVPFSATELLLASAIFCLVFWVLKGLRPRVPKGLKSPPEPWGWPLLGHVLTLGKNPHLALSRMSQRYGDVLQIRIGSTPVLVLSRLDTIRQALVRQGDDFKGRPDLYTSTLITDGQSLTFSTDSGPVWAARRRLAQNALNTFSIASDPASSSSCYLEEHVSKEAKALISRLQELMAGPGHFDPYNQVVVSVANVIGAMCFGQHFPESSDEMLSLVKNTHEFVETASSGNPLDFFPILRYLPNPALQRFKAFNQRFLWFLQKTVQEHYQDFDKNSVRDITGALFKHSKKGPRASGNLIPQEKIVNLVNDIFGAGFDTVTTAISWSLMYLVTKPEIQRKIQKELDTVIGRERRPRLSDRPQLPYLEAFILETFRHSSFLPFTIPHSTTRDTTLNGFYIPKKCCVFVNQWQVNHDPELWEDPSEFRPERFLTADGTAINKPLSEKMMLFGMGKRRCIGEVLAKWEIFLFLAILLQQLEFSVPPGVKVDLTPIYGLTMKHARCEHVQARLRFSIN


Tests used:
[1] = tested on: CYP1A2; test: Amount of CYP1A2 in yeast microsomes by CO-difference spectra, co-expressed with P450 reductase variants; format: cell-based, human; conditions: relative to hRD = 1; yeast W303B, pSYE265
Experimental: (§1) The hRD variant genes, (ΔN1hRD-M, ΔN1hRD-HDEL, ΔN2hRD-HDEL), were integrated into Saccharomyces cerevisiae strain W303B (MAT a leu2 his3 trp1 can1-100 ade2 trp1 ura3) using standard yeast transformation procedures as detailed below. The integrating plasmids, bearing the ΔN1hRD-M, ΔN1hRD-HDEL, ΔN2hRD-HDEL genes, were first linearised with the restriction enzyme BstEII before introducing linearised DNA into yeast cells via homologous recombination. The resultant strains were named: • a) W303B-ΔN1hRD-M, • b) W303B-ΔN1hRD-HDEL, • c) W303B-ΔN2hRD-HDEL.
(§2) They were used for the transformation of the yeast episomal plasmids that bear the CYP2D6 and CYP1A2 genes: • 1. pSYE264 (bearing the human CYP2D6 gene), • 2. pSYE265 (bearing the human CYP1A2 gene).
(§3) A single colony from the strains W303B-ΔN1hRD-M, W303B-ΔN1hRD-HDEL, W303B-ΔN2hRD-HDEL were picked up from a minimal medium (SD) plate (supplemented with appropriate nutrients depending on the auxotrophic markers in the yeast strain) and inoculated into 10 ml of YPD medium (2% Bacto Peptone, 1% yeast extract, 2% glucose). The cells were grown overnight at 30° C. with 220 rpm shaking. 1.5 ml of overnight cultures were centrifuged at 13,000 rpm for a few seconds to collect the cell pellets. 0.5-2 μg of transforming DNA (i.e. the CYP bearing expression plasmids, pSYE264 and pSYE265) and 100 μg of single-stranded salmon sperm DNA were added to pellets and vortexed briefly. 500 μl of PEG solution (40% PEG 3350, 0.1M lithium acetate pH 7.5, 10 mM Tris-HCl pH 7.5, 1 mM EDTA pH7.5) and 5-10% DMSO were added to transformation mixes. All mixes were incubated in a Thermo-mixer for 15 min at 25° C. with shaking at 400 rpm, and then were heat shocked for 15 min at 42° C. After 10 min, 5-10% ethanol was added. The cells were pelleted at 8000 rpm for 1 min and were washed twice in 1×TE buffer and re-suspended in 250 μl-500 μl 1×TE pH7.5. The cells were plated out on SD agar medium and incubated at 30° C. for 2-3 days.
(§4) Recombinant yeast cells were grown in culture using the following protocol: • 1. […] On day two, once OD600 (i.e. OD measured at 600 nm) of the cultures reached 5 to 6 OD-s, the cultures were inoculated into 400 ml YPD medium (1% Bacto Peptone, 1% yeast extract, 2% glucose) with appropriate nutrients in 2-liter flask. […] On day three, after 16 hours, optical density was again measured at 600 nm after diluting the original culture 1:10. […] At the final step, supernatant was poured away and the dry pellet was frozen at −80° C. and the pellet weight was recorded. […]
(§5) The cell pellet that had been obtained from the earlier cell culture was weighed and the weight of cell pellet was recorded. […]

[2] = target: T1, CYP1A2; format: biochemical
[3] = target: T2, CYP2D6 (Homo sapiens, UniProt P10635, V374M); format: biochemical
T2 construct: A 1506 bp BamHI-XbaI fragment containing the human CYP2D6 gene; made in house; host or cells: Saccharomyces cerevisiae W303B, microsomes
T2 sequence (P10635 whole entry V374M, the tested form may be a part): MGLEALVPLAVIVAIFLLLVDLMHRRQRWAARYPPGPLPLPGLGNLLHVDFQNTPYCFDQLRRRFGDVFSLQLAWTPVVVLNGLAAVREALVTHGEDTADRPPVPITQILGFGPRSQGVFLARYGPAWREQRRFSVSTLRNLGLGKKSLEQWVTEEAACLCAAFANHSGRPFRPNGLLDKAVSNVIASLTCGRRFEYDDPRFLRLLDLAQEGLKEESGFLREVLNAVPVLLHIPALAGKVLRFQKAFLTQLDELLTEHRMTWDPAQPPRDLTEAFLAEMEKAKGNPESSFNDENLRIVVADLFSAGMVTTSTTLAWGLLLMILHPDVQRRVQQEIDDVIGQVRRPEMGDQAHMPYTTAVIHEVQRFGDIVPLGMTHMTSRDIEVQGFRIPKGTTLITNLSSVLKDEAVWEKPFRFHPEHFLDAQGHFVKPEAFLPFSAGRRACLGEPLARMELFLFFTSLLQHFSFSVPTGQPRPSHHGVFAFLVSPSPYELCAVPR

[4] = tested on: CYP2D6; test: Amount of CYP2D6 in yeast microsomes by CO-difference spectra, co-expressed with P450 reductase variants; format: cell-based, human; conditions: relative to hRD = 1; genes synthesized using yeast biased codons; yeast W303B, pSYE264
Experimental: as §1, §2, §3, §4, §5

| Molecule | Relative Amounts of CYP1A2 Obtained [1] | pmoles of CYP1A2/mg of total protein (Relative Amounts) [2] | pmoles of CYP2D6/mg of total protein (Relative Amounts) [3] | Relative Amounts of CYP2D6 Obtained [4] |
| --- | --- | --- | --- | --- |
| ΔN1hRD-HDEL: human P450 reductase lacking N-terminal 24 amino acids, with C-terminal yeast ER retention signal HDEL (protein, delN1hRD-HDEL, human P450 reductase lacking N-terminal 24 amino acids, with C-terminal yeast ER retention signal HDEL) MTDMILFSLIVGLLTYWFLFRKKKEEVPEFTKIQTLTSSVRESSFVEKMKKTGRNIIVFYGSQTGTAEEFANRLSKDAHRYGMRGMSADPEEYDLADLSSLPEIDNALVVFCMATYGEGDPTDNAQDFYDWLQETDVDLSGVKFAVFGLGNKTYEHFNAMGKYVDKRLEQLGAQRIFELGLGDDDGNLEEDFITWREQFWPAVCEHFGVEATGEESSIRQYELVVHTDIDAAKVYMGEMGRLKSYENQKPPFDAKNPFLAAVTTNRKLNQGTERHLMHLELDISDSKIRYESGDHVAVYPANDSALVNQLGKILGADLDVVMSLNNLDEESNKKHPFPCPTSYRTALTYYLDITNPPRTNVLYELAQYASEPSEQELLRKMASSSGEGKELYLSWVVEARRHILAILQDCPSLRPPIDHLCELLPRLQARYYSIASSSKVHPNSVHICAVVVEYETKAGRINKGVATNWLRAKEPAGENGGRALVPMFVRKSQFRLPFKATTPVIMVGPGTGVAPFIGFIQERAWLRQQGKEVGETLLYYGCRRSDEDYLYREELAQFHRDGALTQLNVAFSREQSHKVYVQHLLKQDREHLWKLIEGGAHIYVCGDARNMARDVQNTFYDIVAELGAMEHAQAVDYIKKLMTKGRYSLDVWSHDEL | 4.0 ± 10% | 6 ± 10% | 6 ± 10% | 3.8 ± 10% |
| ΔN1hRD-M: human P450 reductase lacking N-terminal 24 amino acids, with C-terminal 12-amino acid c-myc tag; described in WO 2007/129050; gene SEQ ID NO: 5 (protein, delN1hRD-M) MTDMILFSLIVGLLTYWFLFRKKKEEVPEFTKIQTLTSSVRESSFVEKMKKTGRNIIVFYGSQTGTAEEFANRLSKDAHRYGMRGMSADPEEYDLADLSSLPEIDNALVVFCMATYGEGDPTDNAQDFYDWLQETDVDLSGVKFAVFGLGNKTYEHFNAMGKYVDKRLEQLGAQRIFELGLGDDDGNLEEDFITWREQFWPAVCEHFGVEATGEESSIRQYELVVHTDIDAAKVYMGEMGRLKSYENQKPPFDAKNPFLAAVTTNRKLNQGTERHLMHLELDISDSKIRYESGDHVAVYPANDSALVNQLGKILGADLDVVMSLNNLDEESNKKHPFPCPTSYRTALTYYLDITNPPRTNVLYELAQYASEPSEQELLRKMASSSGEGKELYLSWVVEARRHILAILQDCPSLRPPIDHLCELLPRLQARYYSIASSSKVHPNSVHICAVVVEYETKAGRINKGVATNWLRAKEPAGENGGRALVPMFVRKSQFRLPFKATTPVIMVGPGTGVAPFIGFIQERAWLRQQGKEVGETLLYYGCRRSDEDYLYREELAQFHRDGALTQLNVAFSREQSHKVYVQHLLKQDREHLWKLIEGGAHIYVCGDARNMARDVQNTFYDIVAELGAMEHAQAVDYIKKLMTKGRYSLDVWSSSEQKLISEEDLNGSRL | 3.2 ± 10% | 4 ± 10% | 4 ± 10% | 3 ± 10% |
| ΔN2hRD-HDEL: human P450 reductase lacking the 54-amino acid membrane anchoring region, with C-terminal yeast ER retention signal HDEL (protein, delN2hRD-HDEL, human P450 reductase lacking the 54-amino acid membrane anchoring region, with C-terminal yeast ER retention signal HDEL) MTKIQTLTSSVRESSFVEKMKKTGRNIIVFYGSQTGTAEEFANRLSKDAHRYGMRGMSADPEEYDLADLSSLPEIDNALVVFCMATYGEGDPTDNAQDFYDWLQETDVDLSGVKFAVFGLGNKTYEHFNAMGKYVDKRLEQLGAQRIFELGLGDDDGNLEEDFITWREQFWPAVCEHFGVEATGEESSIRQYELVVHTDIDAAKVYMGEMGRLKSYENQKPPFDAKNPFLAAVTTNRKLNQGTERHLMHLELDISDSKIRYESGDHVAVYPANDSALVNQLGKILGADLDVVMSLNNLDEESNKKHPFPCPTSYRTALTYYLDITNPPRTNVLYELAQYASEPSEQELLRKMASSSGEGKELYLSWVVEARRHILAILQDCPSLRPPIDHLCELLPRLQARYYSIASSSKVHPNSVHICAVVVEYETKAGRINKGVATNWLRAKEPAGENGGRALVPMFVRKSQFRLPFKATTPVIMVGPGTGVAPFIGFIQERAWLRQQGKEVGETLLYYGCRRSDEDYLYREELAQFHRDGALTQLNVAFSREQSHKVYVQHLLKQDREHLWKLIEGGAHIYVCGDARNMARDVQNTFYDIVAELGAMEHAQAVDYIKKLMTKGRYSLDVWSHDEL | 4.5 ± 10% | 6 ± 10% | 6 ± 10% | 4.0 ± 10% |
| hRD: wild-type human P450 reductase, full length, control (protein, listed as Homo sapiens) MGDSHVDTSSTVSEAVAEEVSLFSMTDMILFSLIVGLLTYWFLFRKKKEEVPEFTKIQTLTSSVRESSFVEKMKKTGRNIIVFYGSQTGTAEEFANRLSKDAHRYGMRGMSADPEEYDLADLSSLPEIDNALVVFCMATYGEGDPTDNAQDFYDWLQETDVDLSGVKFAVFGLGNKTYEHFNAMGKYVDKRLEQLGAQRIFELGLGDDDGNLEEDFITWREQFWPAVCEHFGVEATGEESSIRQYELVVHTDIDAAKVYMGEMGRLKSYENQKPPFDAKNPFLAAVTTNRKLNQGTERHLMHLELDISDSKIRYESGDHVAVYPANDSALVNQLGKILGADLDVVMSLNNLDEESNKKHPFPCPTSYRTALTYYLDITNPPRTNVLYELAQYASEPSEQELLRKMASSSGEGKELYLSWVVEARRHILAILQDCPSLRPPIDHLCELLPRLQARYYSIASSSKVHPNSVHICAVVVEYETKAGRINKGVATNWLRAKEPAGENGGRALVPMFVRKSQFRLPFKATTPVIMVGPGTGVAPFIGFIQERAWLRQQGKEVGETLLYYGCRRSDEDYLYREELAQFHRDGALTQLNVAFSREQSHKVYVQHLLKQDREHLWKLIEGGAHIYVCGDARNMARDVQNTFYDIVAELGAMEHAQAVDYIKKLMTKGRYSLDVWS | 1 | 1 | 1 | 1 |
